The text below walks through data of patent CN108101970A.

The IC50 is the midpoint of a concentration-inhibition curve. High values mean weaker potency, low ones greater potency.

The assay concerns the target 抗Cry1Ab单克隆抗体. Kind of assay: indirect competitive ELISA (chemiluminescence), anti-Cry1Ab mAb coated at 10 μg/mL; competitor: Cry1Ab mimic nanobody (phage 1.0×10^11 pfu or protein 10 μg/mL).

In the case of Cry1Ab标准品 (from UniProt P0A370 29-607), the IC50 worked out at 0.0427 µg/mL.
